Laboratory results taken from patent publication US20140037648A1 (HUMABS BIOMED, published 2014).

B1: HMB3210v3 (antibody, V domains shown)
VH: EVQLVESGGGLVKPGGSLRLSCAASGFTFSSYSMNWVRQAPGKGLEWVSSISASSSYSDYADSAKGRFTISRDNAKTSLFLQMNSLRAEDTAIYFCARARATGYSSITPYFDIWGQGTLVTVSS
VL: QSVVTQPPSVSGAPGQRVTISCTGSSSNIGAGYDVHWYQQLPGTAPKLLIYDNNNRPSGVPDRFSASKSGTSASLAITGLQAEDEADYYCQSYDRSLSGVFGTGTKVTVL
notes: also called HMB3210 variant 3
B2: Palivizumab (antibody, V domains shown)
VH: QVTLRESGPALVKPTQTLTLTCTFSGFSLSTSGMSVGWIRQPPGKALEWLADIWWDDKKDYNPSLKSRLTISKDTSKNQVVLKVTNMDPADTATYYCARSMITNWYFDVWGAGTTVTVSS
VL: DIQMTQSPSTLSASVGDRVTITCKCQLSVGYMHWYQQKPGKAPKLLIYDTSKLASGVPSRFSGSGSGTEFTLTISSLQPDDFATYYCFQGSGYPFTFGGGTKLEIK

Key:
[1] = target: F protein of PVM strain 15 (PVM (strain 15)); assay: cell-based or functional assay
[2] = target: F protein of BRSV strain RB94 (BRSV (strain RB94)); assay: cell-based or functional assay
[3] = target: T1, stabilized form of the full-length pre-fusion RSV F protein (RSV); assay: surface plasmon resonance
T1 construct: also called pre-fusion F protein; RSV F pre-fusion recombinant protein

[4] = target: T2, F protein of RSV strain A2 (A, 1961 Australia; A/A2/61) (RSV (strain A2), UniProt P03420 26-574); assay: cell-based or functional assay
[5] = target: T2, F protein of RSV strain A2 (A, 1961 …); assay: cell-based or functional assay; remark: listed apart in the source
[6] = target: F protein of RSV 18537 (B, Washington District of Columbia US, 1962; B/18537/62) (RSV (strain 18537), UniProt P13843 26-574); assay: cell-based or functional assay
[7] = target: F protein of RSV WV/14617/85 (B, Huntington West Virginia, 1985; B/14617/85) (RSV (strain WV/14617/85)); assay: cell-based or functional assay
[8] = target: F protein of RSV 9320 (B, Massachusetts US, 1977; B/9320/77) (RSV (strain 9320)); assay: cell-based or functional assay

Binder	IC50, neutralization of PVM strain 15 [1]	IC50, neutralization of BRSV strain RB94 [2]	Kd [3]	IC50 (ng/ml), microneutralization [4]	Neutralization IC50 [5]	Neutralization IC50 [6]	Neutralization IC50 [7]	Neutralization IC50 [8]
B1	0.1 mg/L	0.01 mg/L	0.1 nM					
B2				524 ng/mL	0.617 mg/L	0.143 mg/L	0.129 mg/L	0.069 mg/L
